Target: SARS-CoV-2 spike S1+S2 ECD-His (SARS-CoV-2 (2019-nCoV), UniProt P0DTC2 16-1213)
Test: SPR

## CACCAATATTTACGTTCTACTCTCCAATA (ssDNA, 5' BiotinTEG) [apt-NS]
  binding result: no binding
